Data published in patent US20060223158.

Target: T1, purified DARPP-32
T1 sequence (Q9UD71 1-204, species assumed, looked up): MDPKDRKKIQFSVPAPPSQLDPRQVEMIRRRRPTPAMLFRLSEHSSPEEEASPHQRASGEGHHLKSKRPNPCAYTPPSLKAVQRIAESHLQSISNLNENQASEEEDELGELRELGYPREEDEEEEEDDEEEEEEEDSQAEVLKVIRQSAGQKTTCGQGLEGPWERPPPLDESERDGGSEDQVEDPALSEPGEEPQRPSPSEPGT

B1: Myc-tagged MM2-CK1ε (S323A/T325A/T334A/T337A/S368A/S405A/T407A/S408A), expressed in N2a cells from pCS-Myc-MM2-CK1ε (protein)
chain: MELRVGNKYRLGRKIGSGSFGDIYLGANIASGEEVAIKLECVKTKHPQLHIESKFYKMMQGGVGIPSIKWCGAEGDYNVMVMELLGPSLEDLFNFCSRKFSLKTVLLLADQMISRIEYIHSKNFIHRDVKPDNFLMGLGKKGNLVYIIDFGLAKKYRDARTHQHIPYRENKNLTGTARYASINTHLGIEQSRRDDLESLGYVLMYFNLGSLPWQGLKAATKRQKYERISEKKMSTPIEVLCKGYPSEFSTYLNFCRSLRFDDKPDYSYLRQLFRNLFHRQGFSYDYVFDWNMLKFGAARNPEDVDRERREHEREERMGQLRGAAARALPPGPPAGAAANRLRSAAEPVASTPASRIQPAGNTSPRAIARVDRERKVSMRLHRGAPANVSSSDLTGRQEVSRIPAAQAAVPFDHLGK
- kinase activity of the immunoprecipitated enzyme with DARPP-32 as substrate, against HA-CK1ε: approximately 2-fold more active than HA-CK1ε in the absence of DHPG
